From patent US20250320281A1

How the values were obtained:
Experiment in all cases: cell-based or functional assay
[1] = biological target: HIV-1 Env of isolate MGRM-A-014 (pseudovirus) (HIV-1)
[2] = biological target: HIV-1 Env of isolate MGRM-AE-003 (pseudovirus) (HIV-1)
[3] = biological target: HIV-1 Env of isolate 92WR026 (pseudovirus) (HIV-1)
[4] = biological target: HIV-1 Env of isolate MGRM-A-010 (pseudovirus) (HIV-1)
[5] = biological target: HIV-1 Env of isolate 94UG103 (pseudovirus) (HIV-1)
[6] = biological target: HIV-1 Env of isolate MGRM-A-012 (pseudovirus) (HIV-1)
[7] = biological target: HIV-1 Env of isolate MGRM-A-002 (pseudovirus) (HIV-1)
[8] = biological target: HIV-1 Env of isolate MGRM-A-004 (pseudovirus) (HIV-1)
[9] = biological target: HIV-1 Env of isolate MGRM-A-003 (pseudovirus) (HIV-1)
[10] = biological target: HIV-1 Env of isolate MGRM-AE-001 (pseudovirus) (HIV-1)
[11] = biological target: HIV-1 Env of isolate MGRM-A-009 (pseudovirus) (HIV-1)
[12] = biological target: HIV-1 Env of isolate MGRM-A-006 (pseudovirus) (HIV-1)
[13] = biological target: HIV-1 Env of isolate 93UG077 (pseudovirus) (HIV-1)
[14] = biological target: HIV-1 Env of isolate 93WR029 (pseudovirus) (HIV-1)
[15] = biological target: HIV-1 Env of isolate MGRM-A-013 (pseudovirus) (HIV-1)
[16] = biological target: HIV-1 Env of isolate 92RW008 (pseudovirus) (HIV-1)
[17] = biological target: HIV-1 Env of isolate 92UG037 (pseudovirus) (HIV-1)
[18] = biological target: HIV-1 Env of isolate MGRM-A-005 (pseudovirus) (HIV-1)
[19] = biological target: HIV-1 Env of isolate MGRM-A-007 (pseudovirus) (HIV-1)
[20] = biological target: HIV-1 Env of isolate 92TH021 (pseudovirus) (HIV-1)
[21] = biological target: HIV-1 Env of isolate 92WR024 (pseudovirus) (HIV-1)
[22] = biological target: HIV-1 Env of isolate 92WR009 (pseudovirus) (HIV-1)
[23] = biological target: HIV-1 Env of isolate 92UG031 (pseudovirus) (HIV-1)
[24] = biological target: HIV-1 Env of isolate 92WR020 (pseudovirus) (HIV-1)
[25] = biological target: HIV-1 Env of isolate CMU02 (pseudovirus) (HIV-1)
[26] = biological target: HIV-1 Env of isolate MGRM-A-008 (pseudovirus) (HIV-1)
[27] = biological target: HIV-1 Env of isolate MGRM-A-011 (pseudovirus) (HIV-1)
[28] = biological target: HIV-1 Env of isolate 94KE105 (pseudovirus) (HIV-1)
[29] = biological target: HIV-1 Env of isolate 92WR021 (pseudovirus) (HIV-1)
[30] = biological target: HIV-1 Env of isolate VLGCA1 (pseudovirus) (HIV-1)
[31] = biological target: HIV-1 Env of isolate MGRM-AE-002 (pseudovirus) (HIV-1)
[32] = biological target: HIV-1 Env of isolate MGRM-A-001 (pseudovirus) (HIV-1)
[33] = biological target: HIV-1 Env of isolate MGRM-C-026 (pseudovirus) (HIV-1)
[34] = biological target: HIV-1 Env of isolate JR-CSF (pseudovirus) (HIV-1) (UniProt P20871)
[35] = biological target: HIV-1 Env of isolate 93IN905 (pseudovirus) (HIV-1)

Binder | IC50 (µg/mL), pseudovirus neutralization [1] | IC50 (µg/mL), pseudovirus neutralization [2] | IC50 (µg/mL), pseudovirus neutralization [3] | IC50 (µg/mL), pseudovirus neutralization [4] | IC50 (µg/mL), pseudovirus neutralization [5] | IC50 (µg/mL), pseudovirus neutralization [6] | IC50 (µg/mL), pseudovirus neutralization [7] | IC50 (µg/mL), pseudovirus neutralization [8] | IC50 (µg/mL), pseudovirus neutralization [9] | IC50 (µg/mL), pseudovirus neutralization [10] | IC50 (µg/mL), pseudovirus neutralization [11] | IC50 (µg/mL), pseudovirus neutralization [12] | IC50 (µg/mL), pseudovirus neutralization [13] | IC50 (µg/mL), pseudovirus neutralization [14] | IC50 (µg/mL), pseudovirus neutralization [15] | IC50 (µg/mL), pseudovirus neutralization [16] | IC50 (µg/mL), pseudovirus neutralization [17] | IC50 (µg/mL), pseudovirus neutralization [18] | IC50 (µg/mL), pseudovirus neutralization [19] | IC50 (µg/mL), pseudovirus neutralization [20] | further results
PGT-126 (5141_B17) (antibody, V domains shown) VH: QPQLQESGPGLVEASETLSLTCTVSGDSTAACDYFWGWVRQPPGKGLEWIGGLSHCAGYYNTGWTYHNPSLKSRLTISLDTPKNQVFLKLNSVTAADTAIYYCARFDGEVLVYHDWPKPAWVDLWGRGTLVTVSS VL: QSALTQPPSASGSPGQSISISCTGTSNRFVSWYQQHPGKAPKLVIYGVNKRPSGVPDRFSGSKSGNTASLTVSGLQTDDEAVYYCSSLVGNWDVIFGGGTKLTVL | 0.01 µg/mL | > 50 µg/mL | 0.008 µg/mL | 0.002 µg/mL | 0.008 µg/mL | 0.097 µg/mL | 0.015 µg/mL | > 50 µg/mL | > 50 µg/mL | 9.68 µg/mL | 0.004 µg/mL | > 50 µg/mL | 0.02 µg/mL | > 50 µg/mL | 0.006 µg/mL | 0.008 µg/mL | 0.011 µg/mL | > 50 µg/mL | > 50 µg/mL | 0.197 µg/mL | IC50 (µg/mL), pseudovirus neutralization [21]: 42 µg/mL; IC50 (µg/mL), pseudovirus neutralization [22]: > 50 µg/mL; IC50 (µg/mL), pseudovirus neutralization [23]: > 50 µg/mL; IC50 (µg/mL), pseudovirus neutralization [24]: 0.006 µg/mL; IC50 (µg/mL), pseudovirus neutralization [25]: > 50 µg/mL; IC50 (µg/mL), pseudovirus neutralization [26]: > 50 µg/mL; IC50 (µg/mL), pseudovirus neutralization [27]: > 50 µg/mL; IC50 (µg/mL), pseudovirus neutralization [28]: 0.006 µg/mL; IC50 (µg/mL), pseudovirus neutralization [29]: 0.006 µg/mL; IC50 (µg/mL), pseudovirus neutralization [30]: > 50 µg/mL; IC50 (µg/mL), pseudovirus neutralization [31]: > 50 µg/mL; IC50 (µg/mL), pseudovirus neutralization [32]: > 50 µg/mL
PGT-127 (5145_B14) (antibody, V domains shown) VH: QPQLQESGPGLVEASETLSLTCTVSGDSTGRCNYFWGWVRQPPGKGLEWIGSLSHCRSYYNTDWTYHNPSLKSRLTISLDTPKNQVFLRLTSVTAADTATYYCARFGGEVLVYRDWPKPAWVDLWGRGTLVVTVS VL: QSALTQPPSASGSPGQSITISCTGTSNNFVSWYQQYPGKAPKLVIYEVNKRPSGVPDRFSGSKSGSTASLTVSGLQADDEGVYYCSSLVGNWDVIFGGGTKLTVL | 0.24 µg/mL | > 50 µg/mL | 0.024 µg/mL | 0.017 µg/mL | 0.017 µg/mL | 0.105 µg/mL | 9.42 µg/mL | > 50 µg/mL | > 50 µg/mL | > 50 µg/mL | 0.013 µg/mL | > 50 µg/mL | 0.055 µg/mL | > 50 µg/mL | 0.029 µg/mL | 0.012 µg/mL | 0.014 µg/mL | > 50 µg/mL | > 50 µg/mL | > 50 µg/mL | IC50 (µg/mL), pseudovirus neutralization [21]: > 50 µg/mL; IC50 (µg/mL), pseudovirus neutralization [22]: > 50 µg/mL; IC50 (µg/mL), pseudovirus neutralization [23]: > 50 µg/mL; IC50 (µg/mL), pseudovirus neutralization [24]: 0.01 µg/mL; IC50 (µg/mL), pseudovirus neutralization [25]: > 50 µg/mL; IC50 (µg/mL), pseudovirus neutralization [26]: > 50 µg/mL; IC50 (µg/mL), pseudovirus neutralization [27]: > 50 µg/mL; IC50 (µg/mL), pseudovirus neutralization [28]: 0.023 µg/mL; IC50 (µg/mL), pseudovirus neutralization [29]: 0.011 µg/mL; IC50 (µg/mL), pseudovirus neutralization [30]: > 50 µg/mL; IC50 (µg/mL), pseudovirus neutralization [31]: > 50 µg/mL; IC50 (µg/mL), pseudovirus neutralization [32]: > 50 µg/mL
PGT-125 (5123_A06) (antibody, V domains shown) VH: QSQLQESGPRLVEASETLSLTCNVSGESTGACTYFWGWVRQAPGKGLEWIGSLSHCQSFWGSGWTFHNPSLKSRLTISLDTPKNQVFLKLTSLTAADTATYYCARFDGEVLVYNHWPKPAWVDLWGRGIPVTVSS VL: QSALTQPPSASGSPGQSITISCNGTATNFVSWYQQFPDKAPKLIIFGVDKRPPGVPDRFSGSRSGTTASLTVSRLQTDDEAVYYCGSLVGNWDVIFGGGTTLTVL | 13.9 µg/mL | 0.092 µg/mL | 0.007 µg/mL | 0.004 µg/mL | 0.008 µg/mL | 0.177 µg/mL | 0.013 µg/mL | > 50 µg/mL | > 50 µg/mL | 2.95 µg/mL | 0.009 µg/mL | > 50 µg/mL | 0.012 µg/mL | > 50 µg/mL | 0.014 µg/mL | 0.004 µg/mL | 0.005 µg/mL | > 50 µg/mL | > 50 µg/mL | 0.006 µg/mL | IC50 (µg/mL), pseudovirus neutralization [21]: 35.5 µg/mL; IC50 (µg/mL), pseudovirus neutralization [22]: 0.144 µg/mL; IC50 (µg/mL), pseudovirus neutralization [23]: > 50 µg/mL; IC50 (µg/mL), pseudovirus neutralization [24]: 0.004 µg/mL; IC50 (µg/mL), pseudovirus neutralization [25]: > 50 µg/mL; IC50 (µg/mL), pseudovirus neutralization [26]: > 50 µg/mL; IC50 (µg/mL), pseudovirus neutralization [27]: > 50 µg/mL; IC50 (µg/mL), pseudovirus neutralization [28]: 0.004 µg/mL; IC50 (µg/mL), pseudovirus neutralization [29]: 0.005 µg/mL; IC50 (µg/mL), pseudovirus neutralization [30]: 0.078 µg/mL; IC50 (µg/mL), pseudovirus neutralization [31]: > 50 µg/mL; IC50 (µg/mL), pseudovirus neutralization [32]: 12.4 µg/mL
5366_P21 (PGT-136) (antibody, V domains shown) VH: QLQLQESGPGLVKPSETLSLTCTVSGGSMRGTDWGENDFHYGWIRQSSAKGLEWIGSIHWRGRTTHYKTSFRSRATLSIDTSNNRFSLTFSFVTAADTAVYYCARHKYHDIFRVVPVAGWFDPWGQGLLVTVSS VL: EIVMTQSPPTLSVSPGETATLSCRASQNVKNNLAWYQLKPGQAPRLLIFDASSRAGGIPDRFSGSGYGTDFTLTVNSVQSEDFGDYFCQQYEEWPRTFGQGTKVDIK |  |  |  |  |  |  |  |  |  |  |  |  |  |  |  |  |  |  |  |  | Primary Neutralization Index (B cell culture supernatant) [33]: 6.2; Primary Neutralization Index (B cell culture supernatant) [34]: 1.1; Primary Neutralization Index (B cell culture supernatant) [35]: 5.5
